Patent US20220235103A1 (Molecular Partners, published 2022)

Legend:
Assay in all cases: cell-based or functional assay
[1] = molecular target: spike protein of live SARS-CoV-2 (2019-nCoV/IDF0372/2020) (SARS-CoV-2, UniProt P0DTC2 14-1273)
[2] = molecular target: T1, SARS-CoV-2 spike protein, wild type (Wuhan) (SARS-CoV-2, UniProt P0DTC2 14-1273)
[3] = molecular target: T2, SARS-CoV-2 spike protein D614G (SARS-CoV-2, UniProt P0DTC2 14-1273)
[4] = molecular target: T3, SARS-CoV-2 spike protein G476S (SARS-CoV-2, UniProt P0DTC2 14-1273)
[5] = molecular target: T4, SARS-CoV-2 spike protein V483A (SARS-CoV-2, UniProt P0DTC2 14-1273)
[6] = molecular target: SARS-CoV-2 spike protein D614G x Q675H (SARS-CoV-2, UniProt P0DTC2 14-1273)
[7] = molecular target: T1, SARS-CoV-2 spike protein, wild type …; remark: listed apart in the source
[8] = molecular target: SARS-CoV-2 spike protein variant B.1.351 (SARS-CoV-2, UniProt P0DTC2 14-1273)
[9] = molecular target: SARS-CoV-2 spike protein N501Y (SARS-CoV-2, UniProt P0DTC2 14-1273)
[10] = molecular target: SARS-CoV-2 spike protein E484K (SARS-CoV-2, UniProt P0DTC2 14-1273)
[11] = molecular target: SARS-CoV-2 spike protein K417E (SARS-CoV-2, UniProt P0DTC2 14-1273)
[12] = molecular target: SARS-CoV-2 spike protein Y453F (SARS-CoV-2, UniProt P0DTC2 14-1273)
[13] = molecular target: T2, SARS-CoV-2 spike protein D614G; remark: listed apart in the source
[14] = molecular target: SARS-CoV-2 spike protein S477N (SARS-CoV-2, UniProt P0DTC2 14-1273)
[15] = molecular target: SARS-CoV-2 spike protein N439K (SARS-CoV-2, UniProt P0DTC2 14-1273)
[16] = molecular target: SARS-CoV-2 spike protein A222V (SARS-CoV-2, UniProt P0DTC2 14-1273)
[17] = molecular target: SARS-CoV-2 spike protein G446V (SARS-CoV-2, UniProt P0DTC2 14-1273)
[18] = molecular target: T3, SARS-CoV-2 spike protein G476S; remark: listed apart in the source
[19] = molecular target: SARS-CoV-2 spike protein T478I (SARS-CoV-2, UniProt P0DTC2 14-1273)
[20] = molecular target: SARS-CoV-2 spike protein P479S (SARS-CoV-2, UniProt P0DTC2 14-1273)
[21] = molecular target: T4, SARS-CoV-2 spike protein V483A; remark: listed apart in the source
[22] = molecular target: SARS-CoV-2 spike protein F486V (SARS-CoV-2, UniProt P0DTC2 14-1273)
[23] = molecular target: SARS-CoV-2 spike protein Q493K (SARS-CoV-2, UniProt P0DTC2 14-1273)
[24] = molecular target: SARS-CoV-2 spike protein F490S (SARS-CoV-2, UniProt P0DTC2 14-1273)
[25] = molecular target: T1, SARS-CoV-2 spike protein, wild type …; remark: listed apart in the source

B1: ALE049 (designed binder)
chain: MRGSHHHHHHGSDLGKKLLEAARAGQDDEVRELLKAGADVNAKDYFSHTPLHLAARNGHLKIVEVLLKAGADVNAKDFAGKTPLHLAANEGHLEIVEVLLKAGADVNAQDIFGKTPADIAADAGHEDIAEVLQKAAGSPTPTPTTPTPTPTTPTPTPTGSDLGKKLLEAARAGQDDEVRELLKAGADVNAKDYFSHTPLHLAARNGHLKIVEVLLKAGADVNAKDFAGKTPLHLAANEGHLEIVEVLLKAGADVNAQDIFGKTPADIAADAGHEDIAEVLQKAAGSPTPTPTTPTPTPTTPTPTPTGSDLGKKLLQAARAGQLDEVRELLKAGADVNAKDREGITPLHLAAQHGHLEIVEVLLKAGADVNAKDVWGRTPLHLAAWQGHLEIVEVLLKAGADVNAKDLAGATPLHVAALYGHLEIVEVLLKAGADVNAQDKSGKTPADLAARAGHQDIAEVLQKAAGSPTPTPTTPTPTPTTPTPTPTGSDLGKKLLQAARAGQLDEVRELLKAGADVNAKDREGKTPLHVAAQEGHLEIVEVLLKAGADVNAKDVWGRTPLHLAAWIGHLEIVEVLLKAGADVNAKDVSGATPLHAAALHGHLEIVEVLLNAGADVNAQDKSGKTPADLAARAGHQDIAEVLQKAAGSPTPTPTTPTPTPTTPTPTPTGSDLGKKLLQAARAGQLDEVRELLKAGADVNAKDQEGITPLHVAAHQGHLEIVEVLLKAGADVNAKDVWGRTPLHLAAWRGHLEIVEVLLKAGADVNAKDHAGATPLHAAALSGHLEIVEVLLKAGADVNAQDKSGKTPADLAARAGHQDIAEVLQKAA
- IC50 LV (live virus cytopathic effect assay) [1]: 0.025 nM
- Potency of inhibition of SARS-CoV-2 spike protein variants (IC50) [2]: 0.0165 nM
- Potency of inhibition of SARS-CoV-2 spike protein variants (IC50) [3]: 0.0118 nM
- Potency of inhibition of SARS-CoV-2 spike protein variants (IC50) [4]: 0.0271 nM
- Potency of inhibition of SARS-CoV-2 spike protein variants (IC50) [5]: 0.0275 nM
- Potency of inhibition of SARS-CoV-2 spike protein variants (IC50) [6]: 0.0121 nM
- VSV Pseudotype Neutralization Assay IC50 [7]: 1 ng/mL
- VSV Pseudotype Neutralization Assay IC50 [8]: 3 ng/mL
- VSV Pseudotype Neutralization Assay IC50 [9]: 0.5 ng/mL
- VSV Pseudotype Neutralization Assay IC50 [10]: 2.7 ng/mL
- VSV Pseudotype Neutralization Assay IC50 [11]: 0.5 ng/mL
- VSV Pseudotype Neutralization Assay IC50 [12]: 3.2 ng/mL
- VSV Pseudotype Neutralization Assay IC50 [13]: 2.4 ng/mL
- VSV Pseudotype Neutralization Assay IC50 [14]: 1.9 ng/mL
- VSV Pseudotype Neutralization Assay IC50 [15]: 1.3 ng/mL
- VSV Pseudotype Neutralization Assay IC50 [16]: 2.2 ng/mL
- VSV Pseudotype Neutralization Assay IC50 [17]: 1.7 ng/mL
- VSV Pseudotype Neutralization Assay IC50 [18]: 1.5 ng/mL
- VSV Pseudotype Neutralization Assay IC50 [19]: 2.7 ng/mL
- VSV Pseudotype Neutralization Assay IC50 [20]: 2.1 ng/mL
- VSV Pseudotype Neutralization Assay IC50 [21]: 2.3 ng/mL
- VSV Pseudotype Neutralization Assay IC50 [22]: > 100 ng/mL
- VSV Pseudotype Neutralization Assay IC50 [23]: 7.9 ng/mL
- VSV Pseudotype Neutralization Assay IC50 [24]: 3.8 ng/mL
- IC50 (read off the curve), SARS-CoV-2 VSV pseudotype virus, no competitor [25]: ~0.1 nM
